In experiment [1] the target is T1, Recombinant human ADAM15 (Sino Biological, 10517-H08H) (human, UniProt Q13444 18-696).
T1 sequence (looked up): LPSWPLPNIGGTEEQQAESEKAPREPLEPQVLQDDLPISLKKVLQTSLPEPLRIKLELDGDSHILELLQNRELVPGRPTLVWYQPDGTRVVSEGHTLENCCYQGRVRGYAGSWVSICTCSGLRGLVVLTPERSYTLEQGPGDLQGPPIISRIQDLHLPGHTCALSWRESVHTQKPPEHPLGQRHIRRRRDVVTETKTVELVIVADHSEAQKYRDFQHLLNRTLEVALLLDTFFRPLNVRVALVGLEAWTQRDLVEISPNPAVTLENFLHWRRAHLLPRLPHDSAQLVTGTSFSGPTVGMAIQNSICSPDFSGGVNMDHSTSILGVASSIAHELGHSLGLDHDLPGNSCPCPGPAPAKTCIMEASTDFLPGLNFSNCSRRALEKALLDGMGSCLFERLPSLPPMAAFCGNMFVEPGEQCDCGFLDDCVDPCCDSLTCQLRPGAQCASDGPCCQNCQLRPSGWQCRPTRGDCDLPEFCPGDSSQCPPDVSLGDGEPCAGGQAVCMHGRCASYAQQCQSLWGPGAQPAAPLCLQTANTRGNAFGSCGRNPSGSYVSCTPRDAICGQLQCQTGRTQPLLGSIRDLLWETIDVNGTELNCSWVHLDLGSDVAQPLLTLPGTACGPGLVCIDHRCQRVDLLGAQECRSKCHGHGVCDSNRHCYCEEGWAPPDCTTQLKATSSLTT
In words: ELISA, recombinant ADAM15. How it is done:
(§1) ELISA assays were also used to test hybridoma clones, subclones and purified ADP antibodies for specificity of ADAM8 binding, i.e., binding to rHuADAM8 (Acro Biosystems, AD8-H5223) was compared to binding to closely related recombinant human ADAM proteins: […], ADAM12 (Acro Biosystems, AD2-H5228) and ADAM15 (Sino Biological, 10517-H08H). For analysis of clones and subclones, 50 μl of cell supernatants were used. A test bleed sample (1:1000) was used as a positive control. Hybridoma culture medium or a pre-bleed serum sample (1:1000) was used as a negative control. Purified mouse ADPs were assessed at 1 μg/ml vs normal mouse IgG and with a test bleed sample as a positive control. ADP binding was detected with a goat anti-mouse IgG (Fc specific)-peroxidase antibody (1:5000, Sigma-Aldrich, A0168).

Experiment [2] concerns the target T2, Recombinant human ADAM12 (Acro Biosystems, AD2-H5228) (human, UniProt O43184 208-708).
T2 sequence (looked up): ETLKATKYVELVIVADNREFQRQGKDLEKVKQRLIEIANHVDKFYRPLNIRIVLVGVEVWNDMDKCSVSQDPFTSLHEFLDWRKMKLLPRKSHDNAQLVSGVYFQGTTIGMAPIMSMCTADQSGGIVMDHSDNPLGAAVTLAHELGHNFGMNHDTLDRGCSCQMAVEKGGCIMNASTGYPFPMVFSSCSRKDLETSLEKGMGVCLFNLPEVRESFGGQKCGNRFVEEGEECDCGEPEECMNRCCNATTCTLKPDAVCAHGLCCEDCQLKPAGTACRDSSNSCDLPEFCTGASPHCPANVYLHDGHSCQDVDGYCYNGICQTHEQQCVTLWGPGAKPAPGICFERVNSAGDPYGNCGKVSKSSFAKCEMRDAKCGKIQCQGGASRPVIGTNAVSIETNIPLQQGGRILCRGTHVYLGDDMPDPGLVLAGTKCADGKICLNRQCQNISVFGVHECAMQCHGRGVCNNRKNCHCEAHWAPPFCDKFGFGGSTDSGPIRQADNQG
As to the kind of experiment: ELISA, recombinant ADAM12. As to the method:
as §1

For experiment [3], the target named is T3, Recombinant human ADAM9 (R&D Systems, 939-AD-020) (human, UniProt Q13443 29-697).
T3 sequence (looked up): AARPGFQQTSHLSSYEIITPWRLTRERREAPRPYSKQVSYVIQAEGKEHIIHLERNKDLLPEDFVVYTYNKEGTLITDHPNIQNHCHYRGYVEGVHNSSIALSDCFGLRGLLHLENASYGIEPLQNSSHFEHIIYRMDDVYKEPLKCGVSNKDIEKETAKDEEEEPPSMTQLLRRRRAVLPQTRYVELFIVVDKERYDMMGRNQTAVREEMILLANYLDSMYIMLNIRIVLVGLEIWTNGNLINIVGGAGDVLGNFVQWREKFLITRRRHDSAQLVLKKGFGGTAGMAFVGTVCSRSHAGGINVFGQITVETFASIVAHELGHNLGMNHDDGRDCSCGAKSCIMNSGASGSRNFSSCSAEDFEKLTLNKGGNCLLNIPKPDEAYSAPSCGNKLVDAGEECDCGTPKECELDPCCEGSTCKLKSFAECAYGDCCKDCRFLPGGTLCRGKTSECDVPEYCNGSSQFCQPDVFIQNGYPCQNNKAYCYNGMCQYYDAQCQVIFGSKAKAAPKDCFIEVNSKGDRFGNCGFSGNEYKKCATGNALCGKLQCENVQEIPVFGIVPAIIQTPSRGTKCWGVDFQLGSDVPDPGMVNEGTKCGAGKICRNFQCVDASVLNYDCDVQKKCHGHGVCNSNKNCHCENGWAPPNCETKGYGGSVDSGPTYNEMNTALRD
As to the kind of experiment: ELISA, recombinant ADAM9. How it is done:
as §1

B1: ADP2 (antibody, V domains shown)
VH: EVKLVESGGGLVQPGGSLSLSCAASGFSFPDYYMSWVRQPPGKALEWLGFIRDSANGYTTEYIASVKGRFTFSRDNSQSILYLQMNALRAEDSATYYCARYSRYYGMDYWGQGTSVTVSS
VL: SIVMTQTPKILLVSAGDRVTITCKASQTVNYDVAWYQQKPGQSPKPVIYFASNRYTGVPDRFTGSGFGTDFTFTISTVQAEDLAVYFCQQDYSAPWTFGGGTKLEIK
notes: also called mADP2; mouse ADP2
For B1, the binding result in experiment [1] is “no binding (tested: 1 µg/ml)”.

B2: ADP3 (antibody, IgG1, V domains shown)
VH: EVKLEESGGGLVQPGGSMKLSCAASGFTFSDAWMDWVRQSPEKGLEWVAEIRGKVNNLATYYVESVKGRFTISRDDSKSSVYLQMNSLRAEDTGIYYCLGRYDATYAMDYWGQGTSVTVSS
VL: DVVMTQTPLSLPVSLGDQASISCRSSQSLVHSDGNTYLHWYLQKPGQSPKLLIYKLSNRFSGVPDRFSGSGSGTDFTLKISRVEAEDLGVYFCSQSTHVPWTFGGGTKLEIK
For B2, the binding result in experiment [2] and in experiment [3] was “no binding (tested: 1 µg/ml)” in each case.

Source of the values: US20220227882A1 (TRUSTEES OF TUFTS COLLEGE, published 2022).
